Consider 1 molecule from article PMC7998613, “Annexin A2 Flop-Out Mediates the Non-Vesicular Release of DAMPs/Alarmins from C6 Glioma Cells Induced by Serum-Free Conditions” (Cells, 2021).

Series [1] has as its target T1, recombinant Strep-tagII-S100A13 protein.
T1 chain: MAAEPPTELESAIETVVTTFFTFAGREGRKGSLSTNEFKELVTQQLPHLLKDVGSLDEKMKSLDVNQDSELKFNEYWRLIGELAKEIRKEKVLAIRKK
The experiment in a line: ELISA; 100 uM amlexanox.

The target is the same in series [2]. Kind of series: ELISA; vehicle 0.05% DMSO.
Series [3] concerns the molecule itself. Kind of series: SDS-resistant band on the immunoblot of the pull-down eluate; The Strep-tagII-S100A13 pull-down eluate from the C6 glioma cytosolic fraction was run on SDS-PAGE and blotted with anti-ANXA2. The 63 kDa band is read as the ANXA2 dimer.

B1: annexin A2 (ANXA2), endogenous in C6 glioma cells (natural protein, rat (endogenous in C6 glioma cells), UniProt Q07936 1-339, looked up)
chain: MSTVHEILCKLSLEGDHSTPPSAYGSVKPYTNFDAERDALNIETAIKTKGVDEVTIVNILTNRSNAQRQDIAFAYQRRTKKELPSAMKSALSGHLETVMLGLLKTPAQYDASELKASMKGLGTDEDSLIEIICSRTNQELQEINRVYKEMYKTDLEKDIISDTSGEFRKLLVALAKGKRAEDGSVIDYELIDQDARELYDAGVKRKGTDVPKWISIMTERSVCHLQKVFERYKSYSPYDMLESIRKEVKGDLENAFLNLVQCIQNKPLYFADRLYDSMKGKGTRDKVLIRIMVSRSEVDMLKIRSEFKRKYGKSLYYFIQQDTKGDYQKALLYLCGGDD
notes: annexin A2, rat, endogenous in C6 glioma cells; In whole cell extracts it ran as a single band; also called dimeric ANXA2 of 63 kDa; ANXA2 dimer; source: endogenous, rat C6 glioma cells (cytosolic fraction; fixed cells for in situ PLA)
Regarding B1, the dissociation constant (Kd) was determined as 418 nM in series [1] and 416 nM in series [2]. Moreover, the “stoichiometry N” value in series [3] turned out to be 2.
